The target of test [1] is T1, Biotinylated hPD-L1-Fc-Avi (human, UniProt Q9NZQ7 19-238). Put plainly: cell-based RBA, blocking of hPD-L1-Fc-Avi binding to HEK293 hPD-1 cells. The procedure: The ability of the Fcabs and mock mAb² to block hPD-1/hPD-L1 and hPD-L1/hCD80 interactions was tested in cell-based Receptor Binding Assays (RBA). […] The mix was incubated for another hour with HEK293 cells overexpressing either hPD-1 or hCD80.

Test [2] deals with T2, Human PD-L1 expressed on cells (human, UniProt Q9NZQ7 19-290).
T2 construct: also called cell-surface human PD-L1; hPD-L1
Put plainly: flow cytometry, HEK293 cells overexpressing the target, anti-human Fc 488. As for the experimental part: (§1) Cell binding assays were performed by incubating Fcabs or mAb² proteins with either control HEK293 cells or HEK293 cells overexpressing hPD-L1 or cynomolgus PD-L1 cells for 1 hour at 4° C. Fcab/mAb binding was subsequently detected using an anti-human Fc 488 detection antibody. Fluorescent signal intensities were measured using a FACS canto.
(In flow cytometry, cells or beads pass a laser one at a time.)

Test [3] addresses T3, Cynomolgus PD-L1 expressed on HEK 293 cells (cynomolgus, UniProt Q9NZQ7 19-290 (human entry)).
T3 construct: also called cell-expressed cynomolgus PD-L1
Described as above. The procedure:
as §1

The target in test [4] is T4, Monomeric His-tagged human PD-L1 (Acro biosystems PD1-H5229) (human, UniProt Q9NZQ7 19-238).
T4 construct: also called hPD-L1-his; PD-L1-his
The test can be described thus: SPR Biacore T200, mAb^2 captured by anti-Fab on CM5, monomeric antigen in flow, 1:1 fit.

Test [5] has as its target T5, Monomeric cynomolgus PD-L1 (Acro Biosciences PD1-C52H4) (cynomolgus, UniProt Q9NZQ7 19-238 (human entry)).
T5 construct: also called cynomolgus monomeric PD-L1
The test is described as above.

Test [6] deals with T1, Biotinylated hPD-L1-Fc-Avi. Put plainly: cell-based RBA, blocking of hPD-L1-Fc-Avi binding to HEK293 hCD80 cells; PD-L1 at 50 µg/mL.
Test [7] addresses T2, Human PD-L1 expressed on cells. Put plainly: cell-based or functional assay.
Test [8] shares this target. The test can be described thus: cell-based or functional assay. The source holds these as a separate data set.
The target of test [9] is T4, Monomeric His-tagged human PD-L1 (Acro …). Put plainly: SPR Biacore T200 as Example 5.1, anti-Fab capture, monomeric hPD-L1-his. As for the experimental part: Fcab and mAb² binding to human PD-L1 was assessed by both BIAcore and in a cell binding assay. To measure the affinity of the clones to monomeric hPD-L1-his, the mAb² were captured using an anti-Fab antibody coated on a CM5 chip (GE 28-9582-20 AC) and Fcabs were captured using a Protein A chip (GE 29127556) using a Biacore T200 (GE). To minimize mass transport effects, the capture level was minimized to 200RU and a fast flow rate of 75 μl/min was used. […] The analysis of the data was done using the Biacore T200 evaluation software. Curves subtracted against a blank flow cell and a run with no antigen were analysed using a 1:1 fitting model with no bulk analysis and Rmax analysed locally.
The selected CH3 domain sequences were subcloned and expressed in “mock” (MSL109) mAb² format with the LALA mutation in the CH2 domain, as described in Example 4.2.1, for further screening.
A general note: In SPR one partner is held on a chip, and binding of the other changes the refractive index at the surface.

The target of test [10] is T2, Human PD-L1 expressed on cells. Put plainly: cell-based blocking of biotinylated PD-1 Fc binding to HEK 293 hPD-L1 cells, flow cytometry. The procedure: The blocking activity of the clones produced in Example 2.2.1 was analysed in a cell-based assay using HEK 293 cells overexpressing human PD-L1 (see 1.5 for development of the cell line). Briefly, HEK 293 cells expressing human PD-L1 were seeded at 1×10⁵ cells per well in a V-bottom 96-well plate in PBS. […] The plates were centrifuged at 1500 rpm for 3 minutes at 4° C. to pellet the cells. […] The plates were centrifuged at 1500 rpm for 3 minutes at 4° C. to pellet the cells, supernatant was discarded and the cells were resuspended in PBS. Streptavidin conjugated to Alexa 488 was diluted 1:1000 in PBS and 100 μl was added to the wells for 30 minutes at 4° C. The plates were centrifuged at 1500 rpm for 3 minutes at 4° C. to pellet the cells, supernatant discarded and the cells were resuspended in PBS with DAPI. The plate was read on FACS Canto (BD Bioscience) and the data analysed using FlowJoX.

For test [11], the target named is T4, Monomeric His-tagged human PD-L1 (Acro …). Put plainly: SPR Biacore, captured on protein A, monomeric PD-L1-his in flow, 1:1 fit. As for the experimental part: The monomeric PD-L1-his human antigen was flowed over the chip in titrating concentrations at a high flow rate to minimise mass transport limitations. The KDS were measured using a 1:1 fitting analysis with no refractive index correction and Rₘₐₓ set to local.

Where two headings read alike, the source gives them in different places.

Broadly, the EC50 is the concentration giving half of the maximal effect. A higher EC50 goes with lower potency in that assay. As usually defined, the Kd is the equilibrium constant for the complex coming apart. A low value points to tighter binding. One may read the koff as the rate constant with which the complex falls apart. Low values mean a long-lived complex, high ones a short-lived complex. As usually defined, the IC50 is the concentration at which inhibition is half-maximal. A lower IC50 goes with greater potency. What is called kon is a measure of how fast the partners come together. A high value points to faster complex formation.

T1 sequence (Q9NZQ7 19-238 limits assumed): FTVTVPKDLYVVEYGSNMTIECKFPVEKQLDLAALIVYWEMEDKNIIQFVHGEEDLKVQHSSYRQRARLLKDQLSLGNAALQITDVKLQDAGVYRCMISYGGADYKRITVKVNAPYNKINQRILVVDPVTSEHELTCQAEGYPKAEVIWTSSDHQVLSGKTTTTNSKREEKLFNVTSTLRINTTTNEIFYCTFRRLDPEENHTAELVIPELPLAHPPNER
T4 sequence (Q9NZQ7 19-238 limits assumed): as above
T2 sequence (Q9NZQ7 19-290 limits assumed): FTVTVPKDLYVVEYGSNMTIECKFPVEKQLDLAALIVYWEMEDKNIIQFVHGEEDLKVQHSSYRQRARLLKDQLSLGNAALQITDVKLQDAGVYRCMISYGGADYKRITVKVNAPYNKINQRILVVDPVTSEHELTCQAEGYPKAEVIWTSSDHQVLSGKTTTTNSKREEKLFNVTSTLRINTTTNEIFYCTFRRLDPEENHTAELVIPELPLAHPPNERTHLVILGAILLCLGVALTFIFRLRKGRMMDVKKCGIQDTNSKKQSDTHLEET
T5 sequence (Q9NZQ7 other isoform, or with tags, fused parts or gaps limits assumed): as the sequence (Q9NZQ7 19-238 limits assumed) above, with A33T, A34S, S62N, R68Q, Q82R, F173L, T185A, T192I, H215L counted along it
T3 sequence (Q9NZQ7 other isoform, or with tags, fused parts or gaps limits assumed): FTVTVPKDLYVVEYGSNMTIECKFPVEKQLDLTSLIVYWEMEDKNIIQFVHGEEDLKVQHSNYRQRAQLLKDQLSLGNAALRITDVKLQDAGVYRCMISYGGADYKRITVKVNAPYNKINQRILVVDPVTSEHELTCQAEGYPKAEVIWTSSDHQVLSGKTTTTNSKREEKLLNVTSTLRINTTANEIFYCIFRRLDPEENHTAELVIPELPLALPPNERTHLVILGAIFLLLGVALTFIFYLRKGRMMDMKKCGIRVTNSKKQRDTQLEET

B1: FS17-33-449AA/MSL109 mock mAb^2 (bispecific antibody, human IgG1, kappa, L234A L235A)
heavy: EEQVLESGGGLVKPGGSLRLSCAASGFTFSPYSVFWVRQAPGKGLEWVSSINSDSTYKYYADSVKGRFTISRDNAENSIFLQMNSLRAEDTAVYYCARDRSYYAFSSGSLSDYYYGLDVWGQGTTVIVSSASTKGPSVFPLAPSSKSTSGGTAALGCLVKDYFPEPVTVSWNSGALTSGVHTFPAVLQSSGLYSLSSVVTVPSSSLGTQTYICNVNHKPSNTKVDKKVEPKSCDKTHTCPPCPAPEAAGGPSVFLFPPKPKDTLMISRTPEVTCVVVDVSHEDPEVKFNWYVDGVEVHNAKTKPREEQYNSTYRVVSVLTVLHQDWLNGKEYKCKVSNKALPAPIEKTISKAKGQPREPQVYTLPPSRDETGYWVSLTCLVKGFYPSDIAVEWESNGEPQYWAKTTPPVLDSDGSFFLYSKLTVSNWRWQLDDVFSCSVMHEALHNHYTQKSLSLSPGK
light: DIVMTQSPLSLSVTPGEPASISCRSSQSLLHTNGYNYLDWYVQKPGQSPQLLIYLASNRASGVPDRFSGSGSGTDFTLKISRVETEDVGVYYCMQALQIPRTFGQGTKVEIKRTVAAPSVFIFPPSDEQLKSGTASVVCLLNNFYPREAKVQWKVDNALQSGNSQESVTEQDSKDSTYSLSSTLTLSKADYEKHKVYACEVTHQGLSSPVTKSFNRGEC
On to B1, for which the EC50 was 1.96 nM in [1] and 194 nM in [6]. The Kd in [2] came to 7.88 nM; in test [3], 3.6 nM; in test [4], 0.38 nM; in test [5] it was 0.6 nM.

B2: FS17-33-451AA/MSL109 mock mAb^2 (bispecific antibody, human IgG1, kappa, L234A L235A)
heavy: EEQVLESGGGLVKPGGSLRLSCAASGFTFSPYSVFWVRQAPGKGLEWVSSINSDSTYKYYADSVKGRFTISRDNAENSIFLQMNSLRAEDTAVYYCARDRSYYAFSSGSLSDYYYGLDVWGQGTTVIVSSASTKGPSVFPLAPSSKSTSGGTAALGCLVKDYFPEPVTVSWNSGALTSGVHTFPAVLQSSGLYSLSSVVTVPSSSLGTQTYICNVNHKPSNTKVDKKVEPKSCDKTHTCPPCPAPEAAGGPSVFLFPPKPKDTLMISRTPEVTCVVVDVSHEDPEVKFNWYVDGVEVHNAKTKPREEQYNSTYRVVSVLTVLHQDWLNGKEYKCKVSNKALPAPIEKTISKAKGQPREPQVYTLPPSRDEEGYWVSLTCLVKGFYPSDIAVEWESNGEPQYWAKTTPPVLDSDGSFFLYSKLTVSNWRWQLDDVFSCSVMHEALHNHYTQKSLSLSPGK
light: DIVMTQSPLSLSVTPGEPASISCRSSQSLLHTNGYNYLDWYVQKPGQSPQLLIYLASNRASGVPDRFSGSGSGTDFTLKISRVETEDVGVYYCMQALQIPRTFGQGTKVEIKRTVAAPSVFIFPPSDEQLKSGTASVVCLLNNFYPREAKVQWKVDNALQSGNSQESVTEQDSKDSTYSLSSTLTLSKADYEKHKVYACEVTHQGLSSPVTKSFNRGEC
notes: also called FS17-33-451AA/MSL109 (parent 2)
For the molecule B2, the “DO11.10 EC50” value in test [7] was 4.83 nM; in test [8], 8.28 nM. The concentration for a half-maximal effect (EC50) in test [1] came to 0.92 nM; in [6], 190 nM. Besides, the dissociation constant Kd in [9] worked out at 0.3 nM; in test [2] it was 11.7 nM; in [3], 4.52 nM; in test [4], 0.34 nM; in test [5] it was 0.5 nM. In addition, the koff in test [9] came to 0.000329 s⁻¹.

B3: FS17-33-488AA/MSL109 (bispecific antibody, human IgG1, kappa, L234A L235A)
heavy: EEQVLESGGGLVKPGGSLRLSCAASGFTFSPYSVFWVRQAPGKGLEWVSSINSDSTYKYYADSVKGRFTISRDNAENSIFLQMNSLRAEDTAVYYCARDRSYYAFSSGSLSDYYYGLDVWGQGTTVIVSSASTKGPSVFPLAPSSKSTSGGTAALGCLVKDYFPEPVTVSWNSGALTSGVHTFPAVLQSSGLYSLSSVVTVPSSSLGTQTYICNVNHKPSNTKVDKKVEPKSCDKTHTCPPCPAPEAAGGPSVFLFPPKPKDTLMISRTPEVTCVVVDVSHEDPEVKFNWYVDGVEVHNAKTKPREEQYNSTYRVVSVLTVLHQDWLNGKEYKCKVSNKALPAPIEKTISKAKGQPREPQVYTLPPSRDEEGYWVSLTCLVKGFYPSDIAVEWESNGEPQYWAKTTPPVPDSDGTFFLYSKLTVSNWRWQLGDAFSCSVMHEALRNHYTQKSLSLSPGK
light: DIVMTQSPLSLSVTPGEPASISCRSSQSLLHTNGYNYLDWYVQKPGQSPQLLIYLASNRASGVPDRFSGSGSGTDFTLKISRVETEDVGVYYCMQALQIPRTFGQGTKVEIKRTVAAPSVFIFPPSDEQLKSGTASVVCLLNNFYPREAKVQWKVDNALQSGNSQESVTEQDSKDSTYSLSSTLTLSKADYEKHKVYACEVTHQGLSSPVTKSFNRGEC
Turning to B3, in [7], the “DO11.10 EC50” value came to 3.25 nM. Moreover, in test [9], binding was characterised by a dissociation constant (Kd) of 0.36 nM and the dissociation rate constant (koff) is 0.00036 s⁻¹.

B4: Fcab FS17-33 with LALA mutation (pTT5-FS17-33AA) (designed binder)
chain: TCPPCPAPEAAGGPSVFLFPPKPKDTLMISRTPEVTCVVVDVSHEDPEVKFNWYVDGVEVHNAKTKPREEQYNSTYRVVSVLTVLHQDWLNGKEYKCKVSNKALPAPIEKTISKAKGQPREPQVYTLPPSRDEQSGYWVSLTCLVKGFYPSDIAVEWESNGQPENNYKTTPPVLDSDGSFFLYSKLTVSNWRWQMGDFSCSVMHEALHNHYTQKSLSLSPGK
B4: in [10], the IC50 was determined as 17.7 nM.

B5: Fcab FS17-33-37 with LALA mutation (designed binder)
chain: TCPPCPAPEAAGGPSVFLFPPKPKDTLMISRTPEVTCVVVDVSHEDPEVKFNWYVDGVEVHNAKTKPREEQYNSTYRVVSVLTVLHQDWLNGKEYKCKVSNKALPAPIEKTISKAKGQPREPQVYTLPPSRDEQVGYWVSLTCLVKGFYPSDIAVEWESNGQPENNYKTTPPVLDSDGSFFLYSKLTVSNWRWQMDDFSCSVMHEALHNHYTQKSLSLSPGK
notes: also called FS17-33-37AA
In test [11], B5 had a Kd of 270 nM, a koff of 0.02 s⁻¹ and a kon of 76000 M⁻¹ s⁻¹. For the same molecule, in test [10], the half-inhibitory concentration (IC50) is 8.1 nM.
